Source: the supplement of paper PMC7125110
± gives the standard error. For part of these data: Variants at the floor of the assay were thinned out.

B1: glmS ribozyme (parent)
chain: AUAAAAGCGCCAGAACUACAGAAAUGUAGUUGACGAGGAGGAGGUUUAUCGAAUUUUCGGCGGAUGCCUCCAAA

Columns and labels:
Conditions in all cases: with glucosamine-6-phosphate
glucosamine-6-phosphate [1] = variants of: B1; test: kcat; higher = faster cleavage; RNA array
In short: (§1)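 Tiles bearing barcoded ribozyme variants, transcribed in situ by E. coli RNA polymerase on sequenced MiSeq chips, were imaged over ~14 h at 37 °C using a hybridised Cy3 probe. Glucosamine-6-phosphate was supplied at 40 μM to 10 mM in HEPES/KCl/Mg(OAc)2 buffer. kobs came from one- or two-exponential decay fits to normalised per-tile medians, and weighted Michaelis–Menten fits then provided kcat and KM.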

glucosamine-6-phosphate [2] = variants of: B1; test: self-cleavage kobs at 160 uM GlcN6P; higher = faster cleavage; RNA array
In short: as §1

glucosamine-6-phosphate [3] = variants of: B1; test: self-cleavage kobs at 640 uM GlcN6P; higher = faster cleavage; RNA array
In short: as §1

glucosamine-6-phosphate [4] = variants of: B1; test: self-cleavage kobs at 2500 uM GlcN6P; higher = faster cleavage; RNA array
In short: as §1

glucosamine-6-phosphate [5] = variants of: B1; test: self-cleavage kobs at 10000 uM GlcN6P; higher = faster cleavage; RNA array
In short: as §1

glucosamine-6-phosphate [6] = variants of: B1; test: KM; higher = weaker cofactor use; RNA array
In short: as §1

glucosamine-6-phosphate [7] = variants of: B1; test: self-cleavage kobs at 40 uM GlcN6P; higher = faster cleavage; RNA array
In short: as §1

Variant | kcat (glucosamine-6-phosphate [1]) | self-cleavage kobs at 160 uM GlcN6P (glucosamine-6-phosphate [2]) | self-cleavage kobs at 640 uM GlcN6P (glucosamine-6-phosphate [3]) | self-cleavage kobs at 2500 uM GlcN6P (glucosamine-6-phosphate [4]) | self-cleavage kobs at 10000 uM GlcN6P (glucosamine-6-phosphate [5]) | KM (glucosamine-6-phosphate [6]) | self-cleavage kobs at 40 uM GlcN6P (glucosamine-6-phosphate [7])
G29A U46G | 0.00124 ± 0.00055 s⁻¹ | 5.62e-05 ± 1.3e-05 s⁻¹ | 0.000243 ± 4.1e-05 s⁻¹ | 0.000425 ± 7.7e-05 s⁻¹ | 0.00128 ± 0.00027 s⁻¹ | – | –
A52U C71G | 9.41e-05 ± 6.3e-06 s⁻¹ | – | 3.14e-05 ± 1.3e-05 s⁻¹ | 5.28e-05 ± 9.2e-06 s⁻¹ | 8.19e-05 ± 1e-05 s⁻¹ | 1700 ± 380 µM | –
G32A G38U G59A U65A C70G | 1.63e-05 ± 2.9e-06 s⁻¹ | – | – | – | – | – | –
U45A A64G | 0.0186 ± 0.0054 s⁻¹ | 0.00526 ± 0.0021 s⁻¹ | 0.0143 ± 0.0033 s⁻¹ | – | 0.015 ± 0.004 s⁻¹ | 600 ± 260 µM | 0.000998 ± 0.00025 s⁻¹
G44C C70U | < 1e-05 s⁻¹ | – | – | – | – | – | < 1e-05 s⁻¹
A6U G59A | < 1e-05 s⁻¹ | – | < 1e-05 s⁻¹ | – | – | – | < 1e-05 s⁻¹
G38C A52G | < 1e-05 s⁻¹ | < 1e-05 s⁻¹ | – | < 1e-05 s⁻¹ | < 1e-05 s⁻¹ | 30.9 ± 14 µM | –
U30A U56C | 0.0028 ± 0.00091 s⁻¹ | – | 0.000126 ± 2.4e-05 s⁻¹ | 0.000369 ± 8.1e-05 s⁻¹ | 0.00113 ± 0.00015 s⁻¹ | – | –
G41C A53G | 0.000359 ± 9.5e-05 s⁻¹ | 5.35e-05 ± 1.4e-05 s⁻¹ | 0.000157 ± 3.2e-05 s⁻¹ | 0.000193 ± 4.2e-05 s⁻¹ | 0.000438 ± 7.1e-05 s⁻¹ | – | –
A12C U49C | < 1e-05 s⁻¹ | – | – | – | < 1e-05 s⁻¹ | – | –
A39G A48C | 0.000798 ± 0.00012 s⁻¹ | – | 0.000196 ± 3.4e-05 s⁻¹ | 0.000468 ± 9e-05 s⁻¹ | 0.00063 ± 0.0001 s⁻¹ | 2140 ± 600 µM | –
A53G C58A | 0.000622 ± 7.5e-05 s⁻¹ | 5.7e-05 ± 1.3e-05 s⁻¹ | 0.000129 ± 1.6e-05 s⁻¹ | 0.00036 ± 4.4e-05 s⁻¹ | 0.0005 ± 5.8e-05 s⁻¹ | 2190 ± 460 µM | –
U65C U69G | 4.17e-05 ± 1.1e-05 s⁻¹ | – | – | 5.5e-05 ± 2.3e-05 s⁻¹ | – | – | –
A36U G66C | < 1e-05 s⁻¹ | < 1e-05 s⁻¹ | – | – | – | – | < 1e-05 s⁻¹
G32A A42G A64G | 0.00178 ± 0.00063 s⁻¹ | – | 0.000716 ± 0.00024 s⁻¹ | – | 0.0016 ± 0.00039 s⁻¹ | – | 3.12e-05 ± 1.5e-05 s⁻¹
C11U G66A U69A | 5.61e-05 ± 6.6e-06 s⁻¹ | – | 4.24e-05 ± 1.5e-05 s⁻¹ | 4.46e-05 ± 1.3e-05 s⁻¹ | 6.32e-05 ± 1.9e-05 s⁻¹ | – | –
A36G U69G | 2.8e-05 ± 8.7e-06 s⁻¹ | 3.18e-05 ± 1.6e-05 s⁻¹ | 4.85e-05 ± 1.9e-05 s⁻¹ | – | – | – | –
G37C A64U C68G | 1.68e-05 ± 1.7e-06 s⁻¹ | – | – | – | – | 29.1 ± 13 µM | –
A14C A15U | 0.000353 ± 2.4e-05 s⁻¹ | – | 5.17e-05 ± 6.8e-06 s⁻¹ | 0.000148 ± 1.9e-05 s⁻¹ | 0.000256 ± 3.6e-05 s⁻¹ | 3640 ± 380 µM | –
G7A A36U A39C C68A C71G | 1e-05 ± 4e-06 s⁻¹ | – | – | – | – | – | –

Variant | kcat (glucosamine-6-phosphate [1]) | self-cleavage kobs at 160 uM GlcN6P (glucosamine-6-phosphate [2]) | self-cleavage kobs at 640 uM GlcN6P (glucosamine-6-phosphate [3]) | self-cleavage kobs at 2500 uM GlcN6P (glucosamine-6-phosphate [4]) | self-cleavage kobs at 10000 uM GlcN6P (glucosamine-6-phosphate [5]) | KM (glucosamine-6-phosphate [6]) | self-cleavage kobs at 40 uM GlcN6P (glucosamine-6-phosphate [7])
G43A C67G | 0.00156 ± 0.00014 s⁻¹ | 0.000114 ± 1.3e-05 s⁻¹ | 0.000321 ± 5.4e-05 s⁻¹ | 0.000994 ± 0.00015 s⁻¹ | 0.00126 ± 0.00013 s⁻¹ | 2110 ± 290 µM | 2.87e-05 ± 6.8e-06 s⁻¹
A52G G62U | < 1e-05 s⁻¹ | – | – | – | – | – | –
C19A G40C | 0.00125 ± 0.00032 s⁻¹ | 0.000173 ± 5.2e-05 s⁻¹ | 0.000434 ± 0.00012 s⁻¹ | 0.00156 ± 0.00041 s⁻¹ | 0.00113 ± 0.00023 s⁻¹ | 832 ± 360 µM | 7.99e-05 ± 1.9e-05 s⁻¹
A42U U46G | 5.79e-05 ± 3.4e-06 s⁻¹ | – | 2.81e-05 ± 1.4e-05 s⁻¹ | 3.86e-05 ± 1.2e-05 s⁻¹ | 5.41e-05 ± 8.3e-06 s⁻¹ | 901 ± 260 µM | –
C10A C70U | 2.11e-05 ± 9.5e-06 s⁻¹ | – | – | 2.56e-05 ± 1.3e-05 s⁻¹ | – | – | –
G44U U45A | 0.000658 ± 0.00016 s⁻¹ | – | 0.000175 ± 3.5e-05 s⁻¹ | 0.000478 ± 9.7e-05 s⁻¹ | 0.00046 ± 0.00014 s⁻¹ | 1820 ± 740 µM | –
C8U C67A | < 1e-05 s⁻¹ | – | < 1e-05 s⁻¹ | – | – | – | –
C10A C67U C71G | 2.93e-05 ± 1.4e-05 s⁻¹ | – | – | – | – | – | –
G51A U54A | < 1e-05 s⁻¹ | – | – | – | – | – | –
U45C C67U | 0.00406 ± 0.00066 s⁻¹ | 0.000146 ± 5.8e-05 s⁻¹ | 0.000935 ± 0.00014 s⁻¹ | 0.00203 ± 0.00032 s⁻¹ | 0.00337 ± 0.00031 s⁻¹ | 2250 ± 580 µM | 8.28e-05 ± 9.7e-06 s⁻¹
C16A G63C | < 1e-05 s⁻¹ | < 1e-05 s⁻¹ | – | – | – | – | –
A12U A14U | 0.00461 ± 0.0012 s⁻¹ | 0.000269 ± 5.6e-05 s⁻¹ | 0.00119 ± 0.00018 s⁻¹ | 0.00188 ± 0.00031 s⁻¹ | 0.00449 ± 0.00046 s⁻¹ | 2000 ± 750 µM | 0.00011 ± 1.2e-05 s⁻¹
C8G A15U U55C G60A | < 1e-05 s⁻¹ | – | – | – | < 1e-05 s⁻¹ | – | –
U54C G66U | 0.0027 ± 0.00084 s⁻¹ | 0.000108 ± 2.3e-05 s⁻¹ | 0.000359 ± 6.3e-05 s⁻¹ | 0.00132 ± 0.0002 s⁻¹ | 0.00199 ± 0.00024 s⁻¹ | 3380 ± 1600 µM | 6.62e-05 ± 1.2e-05 s⁻¹
A14C U65A | 0.000588 ± 2.2e-05 s⁻¹ | – | 0.000103 ± 1.5e-05 s⁻¹ | 0.000248 ± 5e-05 s⁻¹ | 0.000453 ± 5.4e-05 s⁻¹ | 3100 ± 210 µM | –
G29A C68A | 1.61e-05 ± 4.9e-06 s⁻¹ | – | – | – | – | – | < 1e-05 s⁻¹
G9A A48G G51A G63A | 1.15e-05 ± 4.5e-06 s⁻¹ | – | – | – | – | – | –
C50G G62C | 2.62e-05 ± 7.9e-06 s⁻¹ | – | – | – | – | – | –
A12C C68A | 2.22e-05 ± 4.9e-06 s⁻¹ | < 1e-05 s⁻¹ | – | 2.42e-05 ± 7.9e-06 s⁻¹ | – | – | < 1e-05 s⁻¹
G32U U54C | 0.000958 ± 0.00028 s⁻¹ | – | 0.000126 ± 1.5e-05 s⁻¹ | 0.000272 ± 3.3e-05 s⁻¹ | 0.000665 ± 8.6e-05 s⁻¹ | 5300 ± 2300 µM | –
